# Data as given in US20230158141A1 (YAFEI SHANGHAI BIOLOG MEDICINE SCIENCE AND TECHNOLOGY, published 2023).
# Numbering of substitutions follows the chain as printed. Names may count otherwise.
# B1: anti-CD28 antibody heavy chain G54C-R4-1 (antibody, human IgG4, kappa, V domains shown)
# VH: QVQLVQSGAEVKKPGASVKVSCKASGYTFTSYYIHWVRQAPGQGLEWIGCIYPCNVNTNYNEKFKDRATLTVDTSISTAYMELSRLRSDDTAVYFCTRSHYGLDWNFDVWGQGTTVTVSS
# VL: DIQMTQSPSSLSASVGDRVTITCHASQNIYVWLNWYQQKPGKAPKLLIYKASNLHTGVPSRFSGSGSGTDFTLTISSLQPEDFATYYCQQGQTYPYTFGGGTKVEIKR
# modifications: R4-1 on Cys 54
# B2: anti-CD28 antibody heavy chain G102C-R4-1 (antibody, human IgG4, kappa, V domains shown)
# VH: B1 VH with C54G, G102C
# VL: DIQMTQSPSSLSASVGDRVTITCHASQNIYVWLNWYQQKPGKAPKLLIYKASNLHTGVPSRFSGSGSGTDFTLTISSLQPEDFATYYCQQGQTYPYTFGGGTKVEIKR
# modifications: R4-1 on Cys 102
# B3: anti-CD28 antibody heavy chain Y27C-R4-4 (antibody, human IgG4, kappa, V domains shown)
# VH: B1 VH with Y27C, C54G
# VL: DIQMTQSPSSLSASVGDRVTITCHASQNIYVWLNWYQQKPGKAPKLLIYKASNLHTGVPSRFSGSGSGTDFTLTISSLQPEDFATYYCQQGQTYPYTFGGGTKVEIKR
# modifications: R4-4 on Cys 27
# B4: anti-CD28 antibody heavy chain S99C-R4-1 (antibody, human IgG4, kappa, V domains shown)
# VH: B1 VH with C54G, S99C
# VL: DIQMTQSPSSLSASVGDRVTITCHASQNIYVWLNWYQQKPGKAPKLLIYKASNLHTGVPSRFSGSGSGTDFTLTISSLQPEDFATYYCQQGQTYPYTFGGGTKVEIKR
# modifications: R4-1 on Cys 99
# B5: anti-CD28 antibody heavy chain S31C-R4-1 (antibody, human IgG4, kappa, V domains shown)
# VH: B1 VH with S31C, C54G
# VL: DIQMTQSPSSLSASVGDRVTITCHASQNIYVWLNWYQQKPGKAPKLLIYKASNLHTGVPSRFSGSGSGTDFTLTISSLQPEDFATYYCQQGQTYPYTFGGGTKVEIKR
# modifications: R4-1 on Cys 31
# B6: anti-CD28 antibody heavy chain Y52C-R4-4 (antibody, human IgG4, kappa, V domains shown)
# VH: B1 VH with Y52C, C54G
# VL: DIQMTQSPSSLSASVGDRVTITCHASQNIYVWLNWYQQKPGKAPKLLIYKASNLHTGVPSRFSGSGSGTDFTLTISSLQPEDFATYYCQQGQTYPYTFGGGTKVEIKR
# modifications: R4-4 on Cys 52
# B7: anti-CD28 antibody heavy chain T58C-R4-1 (antibody, human IgG4, kappa, V domains shown)
# VH: B1 VH with C54G, T58C
# VL: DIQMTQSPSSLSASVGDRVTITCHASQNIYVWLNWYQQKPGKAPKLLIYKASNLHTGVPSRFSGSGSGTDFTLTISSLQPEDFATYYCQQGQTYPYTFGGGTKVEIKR
# modifications: R4-1 on Cys 58
# B8: anti-CD28 antibody heavy chain T30C-R4-1 (antibody, human IgG4, kappa, V domains shown)
# VH: B1 VH with T30C, C54G
# VL: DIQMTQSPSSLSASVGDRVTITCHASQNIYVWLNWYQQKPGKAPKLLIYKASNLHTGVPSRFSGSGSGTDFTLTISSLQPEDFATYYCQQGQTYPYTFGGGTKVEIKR
# modifications: R4-1 on Cys 30
# B9: Ipilimumab L31 Ser to Cys (antibody, V domains shown)
# VH: QVQLVESGGGVVQPGRSLRLSCAASGFTFSSYTMHWVRQAPGKGLEWVTFISYDGNNKYYADSVKGRFTISRDNSKNTLYLQMNSLRAEDTAIYYCARTGWLGPFDYWGQGTLVTVSS
# VL: not shown
# modifications: chain 2 pos 32 (Kabat L31): introduced Cys carrying the conjugated group of the row (R4-1 or S47), written C
# B10: Ipilimumab L50 Gly to Cys (antibody, V domains shown)
# VH: B9 VH
# VL: not shown
# modifications: chain 2 pos 51 (Kabat L50): introduced Cys carrying the conjugated group of the row (R4-1, R4-3 or S47), written C
# B11: Ipilimumab L51 Ala to Cys (antibody, V domains shown)
# VH: B9 VH
# VL: not shown
# modifications: chain 2 pos 52 (Kabat L51): introduced Cys carrying the conjugated group of the row (R4-1 or S47), written C
# B12: Ipilimumab L34 Ala to Cys (antibody, V domains shown)
# VH: B9 VH
# VL: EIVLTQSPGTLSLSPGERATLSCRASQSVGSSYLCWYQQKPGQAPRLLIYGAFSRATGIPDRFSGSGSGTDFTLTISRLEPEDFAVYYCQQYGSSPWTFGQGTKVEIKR
# modifications: chain 2 pos 35 (Kabat L34): introduced Cys carrying the conjugated group of the row (R4-1 or S47), written C
# B13: Ipilimumab L52 Phe to Cys (antibody, V domains shown)
# VH: B9 VH
# VL: not shown
# modifications: chain 2 pos 53 (Kabat L52): introduced Cys carrying the conjugated group of the row (R4-1 or S47), written C
# B14: Ipilimumab L33 Leu to Cys (antibody, V domains shown)
# VH: B9 VH
# VL: not shown
# modifications: chain 2 pos 34 (Kabat L33): introduced Cys carrying the conjugated group of the row (R4-1 or S47), written C
# B15: anti-PD-1 antibody 2 heavy chain A61C (antibody, human IgG4 S228P, kappa, V domains shown)
# VH: QVQLVESGGGVVQPGRSLRLDCKASGITFSNSGMHWVRQAPGKGLEWVAVIWYDGSKRYYCDSVKGRFTISRDNSKNTLFLQMNSLRAEDTAVYYCATNDDYWGQGTLVTVSS
# VL: EIVLTQSPATLSLSPGERATLSCRASQSVSSYLAWYQQKPGQAPRLLIYDASNRATGIPARFSGSGSGTDFTLTISSLEPEDFAVYYCQQSSNWPRTFGQGTKVEIKR
# B16: anti-PD-1 antibody 2 heavy chain D54C (antibody, human IgG4 S228P, kappa, V domains shown)
# VH: B15 VH with D54C, C61A
# VL: B15 VL
# B17: anti-PD-1 antibody 2 heavy chain I51C (antibody, human IgG4 S228P, kappa, V domains shown)
# VH: B15 VH with I51C, C61A
# VL: B15 VL
# B18: anti-PD-1 antibody 2 heavy chain D101C (antibody, human IgG4 S228P, kappa, V domains shown)
# VH: B15 VH with C61A, D101C
# VL: B15 VL
# B19: anti-PD-1 antibody 1 heavy chain I51C (antibody, human IgG4 S228P, kappa, V domains shown)
# VH: QVQLVQSGVEVKKPGASVKVSCKASGYTFTNYYMYWVRQAPGQGLEWMGGCNPSNGGTNFNEKFKNRVTLTTDSSTTTAYMELKSLQFDDTAVYYCARRDYRFDMGFDYWGQGTTVTVSS
# VL: EIVLTQSPATLSLSPGERATLSCRASKGVSTSGYSYLHWYQQKPGQAPRLLIYLASYLESGVPARFSGSGSGTDFTLTISSLEPEDFAVYYCQHSRDLPLTFGGGTKVEIKR
# B20: anti-PD-1 antibody 1 heavy chain Y35C (antibody, human IgG4 S228P, kappa, V domains shown)
# VH: B19 VH with Y35C, C51I
# VL: B19 VL
# B21: anti-PD-1 antibody 1 heavy chain K63C (antibody, human IgG4 S228P, kappa, V domains shown)
# VH: B19 VH with C51I, K63C
# VL: B19 VL
# B22: anti-PD-1 antibody 2 heavy chain A61C-R4-4 (antibody, human IgG4 S228P, kappa, V domains shown)
# VH: B15 VH
# VL: B15 VL
# modifications: R4-4 on Cys 61
# B23: anti-PD-1 antibody 2 heavy chain S32C-R4-1 (antibody, human IgG4 S228P, kappa, V domains shown)
# VH: B15 VH with S32C, C61A
# VL: B15 VL
# modifications: R4-1 on Cys 32
# B24: anti-PD-1 antibody 2 heavy chain Y53C-R4-4 (antibody, human IgG4 S228P, kappa, V domains shown)
# VH: B15 VH with Y53C, C61A
# VL: B15 VL
# modifications: R4-4 on Cys 53
# B25: anti-PD-1 antibody 2 heavy chain S30C-R4-1 (antibody, human IgG4 S228P, kappa, V domains shown)
# VH: B15 VH with S30C, C61A
# VL: B15 VL
# modifications: R4-1 on Cys 30
# B26: anti-PD-1 antibody 2 heavy chain K65C-R4-7 (antibody, human IgG4 S228P, kappa, V domains shown)
# VH: B15 VH with C61A, K65C
# VL: B15 VL
# modifications: R4-7 on Cys 65
# B27: anti-PD-1 antibody 2 heavy chain K57C-R4-7 (antibody, human IgG4 S228P, kappa, V domains shown)
# VH: B15 VH with K57C, C61A
# VL: B15 VL
# modifications: R4-7 on Cys 57
# B28: anti-PD-1 antibody 2 light chain A25C-R4-5 (antibody, human IgG4 S228P, kappa, V domains shown)
# VH: B15 VH with C61A
# VL: B15 VL with A25C
# modifications: R4-5 on Cys 25
# B29: anti-PD-1 antibody 2 light chain S31C-R4-1 (antibody, human IgG4 S228P, kappa, V domains shown)
# VH: B15 VH with C61A
# VL: B15 VL with S31C
# modifications: R4-1 on Cys 31
# B30: anti-PD-1 antibody 2 light chain Y32C-R4-1 (antibody, human IgG4 S228P, kappa, V domains shown)
# VH: B15 VH with C61A
# VL: B15 VL with Y32C
# modifications: R4-1 on Cys 32
# B31: anti-PD-1 antibody 2 light chain A34C-R4-5 (antibody, human IgG4 S228P, kappa, V domains shown)
# VH: B15 VH with C61A
# VL: B15 VL with A34C
# modifications: R4-5 on Cys 34
# B32: anti-PD-1 antibody 2 light chain T56C-R4-5 (antibody, human IgG4 S228P, kappa, V domains shown)
# VH: B15 VH with C61A
# VL: B15 VL with T56C
# modifications: R4-5 on Cys 56
# B33: anti-PD-1 antibody 2 light chain S30C-R4-1 (antibody, human IgG4 S228P, kappa, V domains shown)
# VH: B15 VH with C61A
# VL: B15 VL with S30C
# modifications: R4-1 on Cys 30
# B34: anti-PD-1 antibody 2 light chain S92C-R4-1 (antibody, human IgG4 S228P, kappa, V domains shown)
# VH: B15 VH with C61A
# VL: B15 VL with S92C
# modifications: R4-1 on Cys 92
# B35: anti-CTLA-4 antibody heavy chain D106C (antibody, human IgG1, kappa, V domains shown)
# VH: B9 VH with D106C
# VL: not shown
# B36: anti-CTLA-4 antibody heavy chain Y59C (antibody, human IgG1, kappa, V domains shown)
# VH: B9 VH with Y59C
# VL: not shown
# B37: anti-CTLA-4 antibody heavy chain Y60C (antibody, human IgG1, kappa, V domains shown)
# VH: B9 VH with Y60C
# VL: not shown
# B38: anti-CTLA-4 antibody heavy chain Y53C (antibody, human IgG1, kappa, V domains shown)
# VH: B9 VH with Y53C
# VL: not shown
# B39: anti-CTLA-4 antibody heavy chain K58C (antibody, human IgG1, kappa, V domains shown)
# VH: B9 VH with K58C
# VL: not shown
# B40: anti-CTLA-4 antibody heavy chain K65C (antibody, human IgG1, kappa, V domains shown)
# VH: B9 VH with K65C
# VL: not shown
# Biological target: CD28 (UniProt P10747 19-152, limits assumed)
# Assay: ELISA, conjugate vs WT antibody
row,binding activity (% of WT) [%],Binder
1,97.9,B1
2,80.1,B2
3,94.2,B3
4,87.6,B4
5,97.5,B5
6,91.6,B6
7,89.3,B7
8,87.3,B8

# Biological target: T1, CTLA-4 (UniProt P16410 36-162, limits assumed)
# T1 construct: also called CTLA-4 protein
# Assay: ELISA; S47 on the Cys
# T1 sequence (P16410 36-162 limits assumed): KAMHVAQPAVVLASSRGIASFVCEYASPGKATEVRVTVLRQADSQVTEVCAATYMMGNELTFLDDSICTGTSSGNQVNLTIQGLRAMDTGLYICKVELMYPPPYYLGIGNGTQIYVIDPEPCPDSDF
row,Activity after S47 (40 kD) blocking [%],Binder
1,12,B9
2,19,B10
3,25,B11
4,11,B12
5,16,B13
6,6,B14

# Biological target: T1, CTLA-4
# Assay: ELISA; R4-1 on the Cys
row,Binding activity [%],Binder
1,99,B9
2,97,B10
3,92,B11
4,92,B12
5,72,B13
6,95,B14

# Biological target: T2, PD-1 (UniProt Q15116 25-167, limits assumed)
# Assay: ELISA, OD mutant/OD WT; B=70-90%
# T2 sequence (Q15116 25-167 limits assumed): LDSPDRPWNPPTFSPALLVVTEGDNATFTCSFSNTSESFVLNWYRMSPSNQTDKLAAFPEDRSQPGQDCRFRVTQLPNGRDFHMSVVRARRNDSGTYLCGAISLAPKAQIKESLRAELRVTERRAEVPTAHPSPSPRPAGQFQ
row,binding activity (OD after mutation/OD wild type) [%],Binder
1,70 to 90,B15
2,70 to 90,B16
3,70 to 90,B17
4,70 to 90,B18
5,70 to 90,B19
6,70 to 90,B20
7,70 to 90,B21

# Biological target: T2, PD-1
# Assay: ELISA, conjugate vs WT antibody
row,binding activity (% of WT) [%],Binder
1,83.9,B22
2,86.8,B23
3,91.6,B24
4,107,B25
5,92.1,B26
6,89.7,B27

# Biological target: T2, PD-1
# Assay: ELISA, conjugate vs WT antibody
# Remark: another data set of the same source
row,binding activity (% of WT) [%],Binder
1,87.2,B28
2,95.7,B29
3,25.6,B30
4,83.9,B31
5,89.4,B32
6,34.4,B33
7,45.5,B34

# Biological target: CTLA-4 (UniProt P16410 36-162, limits assumed)
# Assay: ELISA, OD mutant/OD WT; ↓=less than 70%
# Target sequence in this assay (P16410 36-162 limits assumed): as the sequence (P16410 36-162 limits assumed) above
row,binding activity vs wild type [%],Binder
1,< 70,B35
2,< 70,B36
3,< 70,B37
4,< 70,B38
5,< 70,B39
6,< 70,B40

# Biological target: T1, CTLA-4
# Assay: ELISA; R4-1 on the Cys
# Remark: another data set of the same source
row,Binding activity [%],Binder
1,99,B9
2,97,B10
3,92,B11
4,92,B12
5,72,B13
6,95,B14
